Data as given in patent US20040053819A1.

Biological target: human GLP-1 receptor (human) (UniProt P43220)
Test: cell-based or functional assay

Sequence of human GLP-1 receptor (human) (P43220 24-463): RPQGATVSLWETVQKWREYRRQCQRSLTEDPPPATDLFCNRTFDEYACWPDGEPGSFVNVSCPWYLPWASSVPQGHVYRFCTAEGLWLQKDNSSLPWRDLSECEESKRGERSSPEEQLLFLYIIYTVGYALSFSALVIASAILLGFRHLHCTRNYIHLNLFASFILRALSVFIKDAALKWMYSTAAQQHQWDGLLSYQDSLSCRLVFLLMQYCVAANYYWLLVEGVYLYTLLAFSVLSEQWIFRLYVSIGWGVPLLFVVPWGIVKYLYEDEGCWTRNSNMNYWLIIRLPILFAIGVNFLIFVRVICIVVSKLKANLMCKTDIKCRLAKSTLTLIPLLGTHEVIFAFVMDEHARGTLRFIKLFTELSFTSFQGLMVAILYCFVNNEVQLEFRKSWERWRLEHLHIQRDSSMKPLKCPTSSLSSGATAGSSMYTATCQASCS

Substance | In vitro activity relative to Val^8-GLP-1(7-37)OH (EC50 potency, CRE-BLAM β-lactamase reporter in HEK-293 cells expressing human GLP-1 receptor) (fold relative to Val^8-GLP-1(7-37)OH)
Val^8-Arg^26-GLP-1(7-37)OH (peptide) | 1.47
Val^8-GLP-1(7-36)NH2 (peptide) | 1.06
Val^8-Leu^16-GLP-1(7-37)OH (peptide) | 1.13
Val^8-Lys^22-GLP-1(7-37)OH (peptide) | 1.22
Val^8-Trp^12-GLP-1(7-37)OH (peptide) | 1.07

Next, values leading:

In vitro activity relative to Val^8-GLP-1(7-37)OH (EC50 potency, CRE-BLAM β-lactamase reporter in HEK-293 cells expressing human GLP-1 receptor) (fold relative to Val^8-GLP-1(7-37)OH) | Substance
1.92 | Arg^34Lys^26-(N-ε-(γ-Glu(N-α-hexadecanoyl)))-GLP-1(7-37) (peptide)
2.06 | GLP-1(7-37)OH (peptide)
1.67 | Gly^8-GLP-1(7-37)OH (peptide)
1 | Val^8-Ala^27-GLP-1(7-37)OH (peptide)
1 | Val^8-GLP-1(7-37)OH (peptide)
3.33 | Val^8-Glu^22-GLP-1(7-37)OH (peptide)
1.73 | Val^8-Tyr^12-GLP-1(7-37)OH (peptide)
